Data taken from patent US20260056193A1 (SEER, published 2026).
No end group written: not given here.

Tests used:
Assay in all cases: LC-MS/MS of proteins captured from pooled plasma by peptide-modified nanoparticles
E7EQ47 = target: T1, E7EQ47
T1 construct: Protein found in pooled plasma by LC-MS/MS; only the UniProt ID is printed
Protocol: (§1) Provided herein are proteins that are captured by surfaces modified with peptides described herein. Briefly, surfaces are modified with the 10K-peptide-MaganinII. Pooled plasma samples containing proteins and the modified surfaces are combined and the surfaces are isolated and captured proteins are analyzed by liquid chromatography tandem mass spectrometry. The nanoparticle prepared in Example 5 was used and selected proteins that include those in Table 9. These proteins were captured by the peptide-modified surface, but not surfaces without peptide modification.

F8W7Q4 = target: T2, F8W7Q4
T2 construct: Protein found in pooled plasma by LC-MS/MS; only the UniProt ID is printed
Protocol: as §1

A0A0C4DGL1 = target: T3, A0A0C4DGL1
T3 construct: Protein found in pooled plasma by LC-MS/MS; only the UniProt ID is printed
Protocol: as §1

A0A0C4DH33 = target: T4, A0A0C4DH33
T4 construct: Protein found in pooled plasma by LC-MS/MS; only the UniProt ID is printed
T4 sequence (A0A0C4DH33 20-117): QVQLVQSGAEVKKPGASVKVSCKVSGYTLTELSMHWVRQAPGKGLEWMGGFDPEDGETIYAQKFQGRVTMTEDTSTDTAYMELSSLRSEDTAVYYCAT
Protocol: as §1

A0A075B6K0 = target: T5, A0A075B6K0
T5 construct: Protein found in pooled plasma by LC-MS/MS; only the UniProt ID is printed
T5 sequence (A0A075B6K0 20-115): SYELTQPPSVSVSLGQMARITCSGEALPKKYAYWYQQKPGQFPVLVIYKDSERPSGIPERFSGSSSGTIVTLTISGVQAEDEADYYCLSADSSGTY
Protocol: as §1

B1: 10K peptide-MaganinII coupled to Surface 428 nanoparticle (Surface 428-MaganinII) (peptide)
peptide: KKKKKKKKKKGIGKFLHSAKKFGKAFVGEIMNS
modifications: not fully specified; also: coupled through Sulfo-SMCC (maleimide) to thiols of Surface 428 nanoparticle, amine carrying SMCC not given here
notes: Many copies of the peptide stand on one nanoparticle; also called SMCC-MagaininII
Question: How did the “Median Intensity” value (E7EQ47) turn out when B1 was run?
Answer: 3.5

Question: And the “Median Intensity” value (F8W7Q4)?
Answer: 3.55

Question: What about the “Median Intensity” value (A0A0C4DGL1) of the same binder?
Answer: 3.62

Question: And the “Median Intensity” value (A0A0C4DH33)?
Answer: 3.89

Question: What about the “Median Intensity” value (A0A075B6K0) of the same binder?
Answer: 3.81
